The DeepSol protein solubility set

Assay: soluble on expression in E. coli; label from the status in PepcDB or PDB records
With “MGGSHHHHHHGMASAVNVYSTSVTSDNLSRHDMLAWINESLQLNLTKIEQLCSGAAYCQFMDMLFPGSIALKKVKFQAKLEHEYIQNFKILQAGFKRMGVDKIIPVDKLVKGKFQDNFEFVQWFKKFFDANYDGKDYDPVAARQGQETAVAPSLVAPALNKPKKPLTSSSAAPQRPISTQRTAAAPKAGPGVVRKNPGVGNGDDEAAELMQQVNVLKLTVEDLEKERDFYFGKLRNIELICQENEGENDPVLQRIVDILYATDEGFVIPDEGGPQEEQEEY” the “soluble on expression in E. coli” value was “not soluble”.
In the case of “RSTDTFNYATYHTLEEIYDFLDLLVAENPHLVSKIQIGNTYEGRPIYVLKFSTGGSKRPAIWIDTGIHSREWVTQASGVWFAKKITQDYGQDAAFTAILDTLDIFLEIVTNPDGFAFTHSTNRMWRKTRSHTAGSLCIGVDPNRNWDAGFGLSGASSNPCSETYHGKFANSEVEVKSIVDFVKDHGNIKAFISIHSYSQLLMYPYGYKTEPVPDQDELDQLSKAAVTALASLYGTKFNYGSIIKAIYQASGSTIDWTYSQGIKYSFTFELRDTGRYGFLLPASQIIPTAKETWLALLTIMEHTLNHP”, the “soluble on expression in E. coli” value is reported as “soluble”.
With “MKMDTGALTFQQKIYWLVKQIPLGRVATYGQIAALCGWPRHGRYVGYALYRVAPNSDIPWHRVVNAQGKISYAPQRRGTDELQRWRLAAEGIIFTAGDRINLRRYQWQPPATVYQQLIWPEGAATDSAKALEHHHHHH” the “soluble on expression in E. coli” value was “soluble”.
In the case of “MKALTYHGPHHVKVENVPDPGIEQPDDIILRVTATAICGSDLHLYRGKIPQVKHGDIFGHEFMGEVVETGHDVKNIRKGDRVVIPFVIACGDCFFCRLQQYSACENTNDGHGAAMNKKQIPPPAALFGYSHLYGGVPGGQAEYVRVPKGNVGPFKVPPLLSDDKALFLSDILPTAWQAAKNAQIQQGFSVAVFGAGPVGLLTIACARLLGAEQIFVVDHHAWRLRFAEERYGAIPINFDDENDPAEKIIEQTAGHRGVDAVIDAVGFEAKGSLTETVLTNLKLEGSSGKALRQCIAAVRRGGVVSVPGVYAGFIHGFLFGDAFDKGLTFKMGQTHVHAWLGELLPLIEKGLLKPEEIVTHYMPFEEAARGYEIFEKREEECRKVILVPGATSAQAAQKQATGVVNPMPGGVV”, the “soluble on expression in E. coli” value is reported as “not soluble”.
With “MARDALTDALTVGELRRRVHALVLGKRQRVYSGAMFLVEVVHHPELSAMLGLEDNKLLLAMIAQRLQMQSDYFQVARHSSDSFMVWAPDLDPRSARDVAPEVLDALSQPYELRGQPLIVGFRLSGALYAQHGACFDELERSLHIAMLHLDESAGAAWNMFEPSMLEHQRHYQGLEHHHHHH” the “soluble on expression in E. coli” value was “not soluble”.
With “MKFIFFVLYVLQFLPFALLHKIADLTGLLAYLLVKPRRRIGEINLAKCFSEWSEEKRKTVLKQHFKHMAKLMLEYGLYWYAPAGRLKSLVRYRNKHYLDDALAAGEKVIILYPHFTAFEMAVYALNQDIPLISMYSHQKNKILDEQILKGRNRYHNVFLIGRTEGLRALVKQFRKSSAPFLYLPDQDFGRNDSVFVDFFGIQTATITGLSRIAALANAKVIPAIPVREADNTVTLHFYPAWKSFPGEDAKADAQRMNRFIEDRVREHPEQYFWLHKRFKTRPEGSPDFY” the “soluble on expression in E. coli” value was “not soluble”.
For “MGSDKIHHHHHHMRGDMLKRELQAYAKEIGIDEFRVTTADPFLVMKQRLMEQQEKGYASGFEEPDLERRTTPALLLEDAVSIIAIAVAYPSKLKDAPRGKEGERRGIFGRSSWGLDYHQALKQRLTLLEEKIQELSPGARSRSMVDTGELVDRAVAERAGIGFSGKNCSIISEEHGSYLYLGELITDQYLPPDESVEELCGSCNKCLDACPTDALIEPGVIDAKRCISFITQTKTLIPEHFRYALGNRLYGCDTCQQVCPYNRKKNATQHSELQPDPEQVKPLLIPLLSLSNREFKSRFGSLSGAWRGKKPIQRNAVCALVHYQDRTALDALRLMAETDQREDMRALAIWAVGRIAGQEAEDYIQKRLLTDSAEDVQVEGNRLLEEWGNGHAI”, the “soluble on expression in E. coli” value was “not soluble”.
With “HYPKALDQLSEDRGYAFSYPTAAPCERLVWSISQSLMEGKEINALFDRINSSTKRDMVTKVSPKAPHTVVLVLGESARPDYMHSYGYPLENTPRLDSLLASGAAVQFDDVVSAKPNTQGSIAAMMSIGESRAGGKWYDDPMLIPLLRSAGYYTFWLSAQEKLGFAVQNVTAIAKLSDSTLFVFRGMDDVVLPNLMQRAEYQNLFEVVHLSGSHVSYQDRYPSEFGKFTSENLPSHHDESKDAVVAHYVNSLYYTDYILGEIERKYANEDAIIIYLSDHGQVLYDAPNNPNLVGHSFSQQGVSIPLFIYLSPSMRTKYPELIPRLQSIRSRRIMTDVLPYAIMGLLGIESPLYNPELDFWGTGYDEHRPRVIYSDDSSLVID” the “soluble on expression in E. coli” value was “not soluble”.
For “ENEIERPEDMRVRTLANKSKMKVSIVQQIDRKVALDDIAVSHGLDFPELLSEVETIVYSGTRINIDYFINEVMDEDHLEDIFEYFKESTTDSLEEAMQELGKDYSEEEIRLVRIKFLSEMAN”, the “soluble on expression in E. coli” value was “soluble”.
In the case of “MGSDKIHHHHHHMFTSNQGAGRMNKEVGMDNPGLDVYLRDQKIGRLWLDDKRRFVFQYDSEWTHQKGAVPLSLHLPLREEIYPDDLARPFFSNLLPEAEVKRAIAQRLRISESNDFALLNSIGGECAGAVSVLPAGVAPAMKPGYRELSEEELHRIIIELPRRPLLAGVEGMRLSLAGAQNKLPVYMEDHRIFIATGNAPSSHILKPPIRDLEDTVGNEAFCMILAQRLGLQVPVVTIRRGLDRIFIIARYDRSRDTDGHIVRLHQEDFCQALGFLPEQKYENEGGPSLKQCFTLLQEKSIRPAADRMALLRWTIFNLLIGNDDAHAKNLAMIFTDRGPRLAPFYDLICTQVYPDLTEKQAMRIGGENRPSWILQKHWDRFSESTAIKPNLVLKTLKEMSAAIALAAQTLSSEFIKKYGTCTIIEEILAVIEKRAESV”, the “soluble on expression in E. coli” value is reported as “not soluble”.
With “GAEFKEKPEAPTEQLDVACGQENLPVGAWPPGAAPAPFQYTPDHVVGPGADIDPTQITFPGCICVKTPCLPGTCSCLRHGENYDDNSCLRDIGSGGKYAEPVFECNVLCRCSDHCRNRVVQKGLQFHFQVFKTHKKGWGLRTLEFIPKGRFVCEYAGEVLGFSEVQRRIHLQTKSDSNYIIAIREHVYNGQVMETFVDPTYIGNIGRFLNHSCEPNLLMIPVRIDSMVPKLALFAAKDIVPEEELSYDYSGRYLNLTVSASKERLDHGKLRKPCYCGAKSCTAFLPFDSS” the “soluble on expression in E. coli” value was “soluble”.
With “GPGSMLSERACLHPGRALKCERFLAIFPQNVKEMLLQNPLFVQNSRVAERSIIRHNQFLLACYMTYLILRNDENAEGQALKYINFMPRNEGNFEQLISNMNGVLDGAAACQSAQAALSLQFGITQAEVRPLLQWSMAMIFSRMAPIDHRWTLQCAFKNTPFAPAFDIRGPDDDANMVKEPIAFLCPVIDMCNHSDHENVALMVPQRTDSSHESVICLRSLRDIDRGEELTMTYGGSPTELRVIWGMQRVL” the “soluble on expression in E. coli” value was “not soluble”.
In the case of “MFIVKAFRDIIINIKFLQEGINMSDNKTAGQKLWENLSYNCPNVWNKIGNDEIKNTFAFCEEYKSFLDKSKTEREFVRETKKLAESKGFVSIDDVIDSGKPLKPGMKVYRVFKNKIVALAVIGSQPPEKGFNLVGAHIDSPRIDLKPNPIYEANEMVFLKTHYYGGIKKYQWVTIPLSMHGVIIRKDGSSVEIVIGEDENDTVFTITDLLPHLAAEQMQKKMSEGITGENLNILFGSIPYNDEKVKEKVKLNILKLLNEKYNITEEDLLSAELELVPSFKAKDVGLDKSMVGAYGQDDRVCAYTALRAVLDLDNVDKTAVCVLTDKEEIGSMGNTGAQSSFLENFIADICALSSEKYTDIILRRCLSNSKMLSADVNAAIDPTYEGVYDKLNSSFIGKGIVLLKYTGARGKSGASDAHAEFMGEVRKLFNERKIFWQTAELGKVDQGGGGTIAQFVANMGMDVIDCGVAVLSMHSPFEVTSKVDIYMAYKAYREFLKYIK”, the “soluble on expression in E. coli” value is reported as “soluble”.
For “MFSVFEWILIFFGILNWFKFTQPSTPEPASRFFTRVCQQLRETVLIEIDSSGRVQPFVSIVEEGSKPYFSPHVGCAECMQWWDVYGEQPHRVEETEDQDTDEGVEEESEIEDSDFDDQITFVKPTTPAPLSPETENFIEDKMKFHFQATDIINEYLGKGTDMGIVSNLIRISQTYGVQLKQVSSGKSSMKEIEGILKSLQKEFEQEIEGLNGEISEAEENNESDIDESFEFVENLELDSDFE”, the “soluble on expression in E. coli” value was “not soluble”.
In the case of “AHHHHHHGSAESPFKADIERAQKELSEKMTPGAIVYIPGSSVINKTGSWRVFKPEFNRDKCVRCYLCYIYCPEPAIYLDEEGYPVFDYDYCKGCGICANECPTKAIEMVREVK”, the “soluble on expression in E. coli” value is reported as “not soluble”.
For “MNFISLSIFSEHLKSLFPFFTPNPFLNANVAVNDDVSSPNSSVTANYGHGTRACYTHRMGRFLSPKKAFFRFSLIN”, the “soluble on expression in E. coli” value was “not soluble”.
In the case of “MLTRSMVLVNEAWWVEPLPVHWVDKLVAELEAKLQNRGKDEYIFNGGLSVSGLQHIGRLRGEVLLGEAVRRELEKRGFRVKQLLTLYTVDPWKGKDEQRREFPDPKAAERYVGWPLDRVPDPKGCHASWVDHFWSDFGPYIGVFTDGKIEVVTTRELYKGRLKEFITTMVLPRRDEIRRVINKYRGRKPYQEGWIPLEPRCARCGRIDSTEALEILGGERVRYRCSYCGYQGESSIEDSKLNWRIEWAGVWWSLGVDFEPYGKDHATPGGSRDSAAELARLLGFEPPEGVWYEWVSLRAGGREADMSSSGFTGITPREWLDIAHPQILRFIYFLHPPTRRVVVDLSEIPSYYSQYYRAERIYFGIEEASTVEETRYLARTYELSHPSNPPAKPPSQIPYSHAAIVAQVVGPERLWTDGLERLKRAGLLGHDEYSIRWAKELLEKAYKWARRYAPKHLKFEIPDSPPEDALRRIEKPDLLEKLAEVLESVEEWSEERIKQALVEFGEGMSSSERRRFYRDFYLAIVGRPEGPRAAPLLSLMDRGFVVDRLRKAANLSRELKGR”, the “soluble on expression in E. coli” value is reported as “soluble”.
In the case of “MNQLKGIHHVTAITSSAEKNYEFFTHVLGMRLVKKTVNQDDIQTYHLFFADDKGSAGTDMTFFDFPGVPKGVHGTNEISKTSFRVPTDAALAYWVKRFDRLEVEHTGIKEQFGKKTLSFVDFDDQHYQLISDELDKGIESGTPWQNGPVPLEYAITGLGPVFIRIANFSFFKEVLEKVLLFKEIAQEGEFYLFEVNKGGNGASVIVEHNTVLPEAQQGFGTVHHAAFRVEDRAVLEEWIERISSVGLPSSGYVNRHFFESLYARVAPQILFEFATDGPGFMGDESYETLGEKLSLPPFLEPKREEIEKLVRPIDTVRSTKEFIKE”, the “soluble on expression in E. coli” value is reported as “not soluble”.
In the case of “MSKPLIFAHRGVKGTHPENTMIAFQEAERIGAHGIELDVHLSKDGELVVIHDETVDRTTNGVGLVSEKTVEELQLLDAGSYKDPSFHEAKIPTLREVFIWLSTTNLQLNIELKTDVIHYPNIEEKAVALVREYHLSNQIVFSSFNHDSVSLLAEIAPEIPRAILYDTPLTDPISEAKHREASGLHPNFQLLTKEFVQLAQEQGYVFRPYTINEYKDLQTMIDYGVDVIITDWPARAFELLS”, the “soluble on expression in E. coli” value is reported as “not soluble”.
In the case of “MSLELYAASYILPIASPPIPGGAVAVHDGCIVETGTLAELRSRHSGPVHDFPGCAILPGLVNAHTHLELTHFPSWKIRKGIDYSPRTYVDWIIQVIKIRRALSPQELELSVREGLRICLEAGTTAIGEILTDRSLIPLYADSGLRGRLLFEAIGHDPVRNAQLVEELDAAIASFSGGSFLPGISPHAPHTVAEHLHQDVYRLAYERNVPRVIHLAESREESDFFFDSSGKIAEFLYPHVRWESYLPAPRRTTATAWLDGLGVLNGTISAVHCVHLTPSDAEILAKRGVGVVLCPRSNDKLAVGRAPVVLLKRLGVPLALGTDSLASNDSLSLWDEMRYLLDTFPGIFTPTEALSMTTIGSARQLALADRTGSLDKGKHADFLVMKLPGRNGSGEALHEALIHSGEILQVFLAGNLVVSREAFSEGHHHHHH”, the “soluble on expression in E. coli” value is reported as “soluble”.
In the case of “GERIDIRISPYLQDLFDAARADGVYPIVASGYRTTEKQQEIMDEKVAEYKAKGYTSAQAKAEAETWVAVPGTSEHQLGLAVDINADGIHSTGNEVYRWLDENSYRFGFIRRYPPDKTEITGVSNEPWHYRYVGIEAATKIYHQGLCLEEYLNTEK”, the “soluble on expression in E. coli” value is reported as “not soluble”.
